{"source": "paper PMC10786891", "about": "“Massively parallel profiling of RNA-targeting CRISPR-Cas13d”", "binders": {"B1": {"name": "target 1 insC 3' of 18,insC 3' of 1 (mixed)", "RNA 1": "CACCCGUGCAAAAAUGCAGGGGUCUAAAACUGAGCGGAUAACCUCUCUAUGG", "RNA 2": "GGGAAUGGAUCCACAUCUACGAAUUCGUACCAUACGAGAGGUUAUCCGCUCACCCGAGAUCGGAAGAGCACACGU"}, "B2": {"name": "target 1 C2A,C6G (mixed)", "RNA 1": "B1 RNA 1", "RNA 2": "GGGAAUGGAUCCACAUCUACGAAUUCGUACCAUAGAGAGGUUAUCGGCUAACCGAGAUCGGAAGAGCACACGU"}, "B3": {"name": "target 1 insC 3' of 18,insA 3' of 7 (mixed)", "RNA 1": "B1 RNA 1", "RNA 2": "B1 RNA 2 with C47A, G48C, C49G, U50C, C51U, A52C, C53A"}, "B4": {"name": "target 3 insU 3' of 22,insA 3' of 3 (mixed)", "RNA 1": "CACCCGUGCAAAAUUGCAGGGGUCUAAAACGACCUGAAUAUUUCAGAUCAAA", "RNA 2": "GGGAAUGGAUCCACAUCUACGAAUUCGUUUUUUGAUCUGAAAUAUUCAGGAUCUGCAGAUCGGAAGAGCACACGU"}, "B5": {"name": "target 3 insU 3' of 3,insG 3' of 1 (mixed)", "RNA 1": "B4 RNA 1", "RNA 2": "GGGAAUGGAUCCACAUCUACGAAUUCGUUUUUGAUCUGAAAUAUUCAGGUUCGUGCAGAUCGGAAGAGCACACGU"}, "B6": {"name": "target 3 C1U,U7A (mixed)", "RNA 1": "B4 RNA 1", "RNA 2": "GGGAAUGGAUCCACAUCUACGAAUUCGUUUUUGAUCUGAAAUAUACAGGUUUGCAGAUCGGAAGAGCACACGU"}, "B7": {"name": "target 3 C6U,A13G (mixed)", "RNA 1": "B4 RNA 1", "RNA 2": "B6 RNA 2 with A39G, A45U, C46U, U51C"}, "B8": {"name": "target 3 U7G (mixed)", "RNA 1": "B4 RNA 1", "RNA 2": "B6 RNA 2 with A45G, U51C"}, "B9": {"name": "target 3 C6G (mixed)", "RNA 1": "B4 RNA 1", "RNA 2": "B6 RNA 2 with A45U, C46G, U51C"}, "B10": {"name": "target 3 U7A (mixed)", "RNA 1": "B4 RNA 1", "RNA 2": "B6 RNA 2 with U51C"}, "B11": {"name": "target 3 C1U,G4C (mixed)", "RNA 1": "B4 RNA 1", "RNA 2": "B6 RNA 2 with A45U, G48C"}, "B12": {"name": "target 3 G3C,A12G (mixed)", "RNA 1": "B4 RNA 1", "RNA 2": "B6 RNA 2 with A40G, A45U, G49C, U51C"}, "B13": {"name": "target 3 insG 3' of 22,insA 3' of 22 (mixed)", "RNA 1": "B4 RNA 1", "RNA 2": "GGGAAUGGAUCCACAUCUACGAAUUCGUUUGAUUGAUCUGAAAUAUUCAGGUCUGCAGAUCGGAAGAGCACACGU"}, "B14": {"name": "target 3 C6A,U7C (mixed)", "RNA 1": "B4 RNA 1", "RNA 2": "B6 RNA 2 with A45C, C46A, U51C"}, "B15": {"name": "target 3 insU 3' of 6,insU 3' of 3 (mixed)", "RNA 1": "B4 RNA 1", "RNA 2": "B5 RNA 2 with A47U, G48A, U50G, C52U, G53C"}, "B16": {"name": "target 3 del2,del5 (mixed)", "RNA 1": "B4 RNA 1", "RNA 2": "GGGAAUGGAUCCACAUCUACGAAUUCGUUUUUGAUCUGAAAUAUUCGGCUGCAGAUCGGAAGAGCACACGU"}, "B17": {"name": "target 3 G3C,C6G (mixed)", "RNA 1": "B4 RNA 1", "RNA 2": "B6 RNA 2 with A45U, C46G, G49C, U51C"}, "B18": {"name": "target 3 insU 3' of 3,insU 3' of 1 (mixed)", "RNA 1": "B4 RNA 1", "RNA 2": "B5 RNA 2 with G53U"}, "B19": {"name": "target 3 insA 3' of 21,insU 3' of 3 (mixed)", "RNA 1": "B4 RNA 1", "RNA 2": "B4 RNA 2 with U32A, A51U"}, "B20": {"name": "target 3 insC 3' of 5,insC 3' of 2 (mixed)", "RNA 1": "B4 RNA 1", "RNA 2": "B5 RNA 2 with G48C, U50G, G53C"}, "B21": {"name": "target 3 insU 3' of 3,insA 3' of 1 (mixed)", "RNA 1": "B4 RNA 1", "RNA 2": "B5 RNA 2 with G53A"}, "B22": {"name": "target 3 insU 3' of 4,insA 3' of 4 (mixed)", "RNA 1": "B4 RNA 1", "RNA 2": "B5 RNA 2 with G49U, U50A, U51G, C52U, G53C"}, "B23": {"name": "target 3 A5U,C6G (mixed)", "RNA 1": "B4 RNA 1", "RNA 2": "B6 RNA 2 with A45U, C46G, A47U, U51C"}, "B24": {"name": "target 3 insG 3' of 6,insC 3' of 3 (mixed)", "RNA 1": "B4 RNA 1", "RNA 2": "B5 RNA 2 with A47G, G48A, U50G, U51C, C52U, G53C"}, "B25": {"name": "target 3 insG 3' of 7,insA 3' of 3 (mixed)", "RNA 1": "B4 RNA 1", "RNA 2": "B5 RNA 2 with C46G, A47C, G48A, U50G, U51A, C52U, G53C"}, "B26": {"name": "target 3 C1G,U7A (mixed)", "RNA 1": "B4 RNA 1", "RNA 2": "B6 RNA 2 with U51G"}, "B27": {"name": "target 3 G19U,U20G (mixed)", "RNA 1": "B4 RNA 1", "RNA 2": "B6 RNA 2 with U32G, G33U, A45U, U51C"}, "B28": {"name": "target 3 insA 3' of 3,insG 3' of 1 (mixed)", "RNA 1": "B4 RNA 1", "RNA 2": "B5 RNA 2 with U50A"}, "B29": {"name": "target 3 insA 3' of 22,insC 3' of 3 (mixed)", "RNA 1": "B4 RNA 1", "RNA 2": "B4 RNA 2 with U31A, A51C"}, "B30": {"name": "target 3 G4U,A18G (mixed)", "RNA 1": "B4 RNA 1", "RNA 2": "B6 RNA 2 with A34G, A45U, G48U, U51C"}, "B31": {"name": "target 3 G4C (mixed)", "RNA 1": "B4 RNA 1", "RNA 2": "B6 RNA 2 with A45U, G48C, U51C"}, "B32": {"name": "target 3 C1G,G4C (mixed)", "RNA 1": "B4 RNA 1", "RNA 2": "B6 RNA 2 with A45U, G48C, U51G"}, "B33": {"name": "target 3 A9G (mixed)", "RNA 1": "B4 RNA 1", "RNA 2": "B6 RNA 2 with A43G, A45U, U51C"}}, "note": "Where a chain is given by its changes, count along the chain named. Names may count otherwise.", "data": [{"molecular_target": "T1, EsCas13d, nuclease-dead (Eubacterium siraeum, UniProt B0MS50, R295A;H300A;R849A;H854A)", "T1 sequence": "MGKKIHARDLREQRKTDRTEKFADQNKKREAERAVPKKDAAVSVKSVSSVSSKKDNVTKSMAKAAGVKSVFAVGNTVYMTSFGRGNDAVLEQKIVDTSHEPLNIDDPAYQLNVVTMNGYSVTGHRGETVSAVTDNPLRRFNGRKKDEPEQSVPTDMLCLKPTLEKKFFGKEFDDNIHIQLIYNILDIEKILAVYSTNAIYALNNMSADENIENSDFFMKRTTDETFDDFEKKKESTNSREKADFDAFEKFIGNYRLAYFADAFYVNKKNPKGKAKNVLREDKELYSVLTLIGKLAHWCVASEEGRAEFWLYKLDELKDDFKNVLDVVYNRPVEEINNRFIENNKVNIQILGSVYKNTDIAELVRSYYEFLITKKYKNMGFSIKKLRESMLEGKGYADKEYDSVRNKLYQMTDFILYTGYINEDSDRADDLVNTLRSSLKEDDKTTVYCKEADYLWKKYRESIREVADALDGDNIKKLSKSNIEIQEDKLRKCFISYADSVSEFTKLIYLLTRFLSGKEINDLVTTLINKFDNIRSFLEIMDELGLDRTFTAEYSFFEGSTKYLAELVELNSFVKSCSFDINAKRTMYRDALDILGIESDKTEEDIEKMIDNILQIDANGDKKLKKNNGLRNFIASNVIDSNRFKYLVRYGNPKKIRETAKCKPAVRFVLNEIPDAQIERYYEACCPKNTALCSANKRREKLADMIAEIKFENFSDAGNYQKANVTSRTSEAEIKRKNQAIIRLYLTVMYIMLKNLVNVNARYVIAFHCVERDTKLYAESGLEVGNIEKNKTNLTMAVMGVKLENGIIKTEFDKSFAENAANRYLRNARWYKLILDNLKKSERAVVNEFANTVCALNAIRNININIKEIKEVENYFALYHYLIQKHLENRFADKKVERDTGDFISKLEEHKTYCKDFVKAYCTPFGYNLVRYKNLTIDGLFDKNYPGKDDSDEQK", "assay": "crRNA (strand 1, pre-loaded); Mg2+; 40 mM Tris-HCl pH 7.5, 150 mM NaCl, 6 mM MgCl2, 1 mM DTT, 0.1% Tween-20, 0.2 mg/ml BSA; 25 C; 10 min per concentration, then washed", "settings": "tags: His6-TwinStrep-SUMO cleaved; N-terminal SNAP kept (SNAP-Surface 488); label: 3' end held by stalled T7 RNA polymerase", "units": {"Kd": "nM"}, "values": [{"binder": "B1", "Kd": "29 ± 5"}, {"binder": "B2", "Kd": "6.03 ± 0.34"}, {"binder": "B3", "Kd": "29 ± 1.6"}, {"binder": "B4", "Kd": "22.1 ± 2.4"}, {"binder": "B5", "Kd": "37.4 ± 4.85"}, {"binder": "B6", "Kd": "36.5 ± 15.5"}, {"binder": "B7", "Kd": "34 ± 6"}, {"binder": "B8", "Kd": "47 ± 8"}, {"binder": "B9", "Kd": "20.4 ± 2.3"}, {"binder": "B10", "Kd": "27.8 ± 3.6"}, {"binder": "B11", "Kd": "~68.5"}, {"binder": "B12", "Kd": "100 ± 33"}, {"binder": "B13", "Kd": "41.5 ± 4.5"}, {"binder": "B14", "Kd": "69 ± 9.5"}, {"binder": "B15", "Kd": "12.9 ± 2"}, {"binder": "B16", "Kd": "5.35 ± 0.45"}, {"binder": "B17", "Kd": "34.2 ± 4.7"}, {"binder": "B18", "Kd": "96 ± 24.5"}, {"binder": "B19", "Kd": "46.3 ± 13.7"}, {"binder": "B20", "Kd": "9.9 ± 1.35"}, {"binder": "B21", "Kd": "76.5 ± 19.5"}, {"binder": "B22", "Kd": "22.9 ± 3.25"}, {"binder": "B23", "Kd": "39 ± 4.5"}, {"binder": "B24", "Kd": "17.5 ± 1.3"}, {"binder": "B25", "Kd": "38 ± 5.5"}, {"binder": "B26", "Kd": "15.3 ± 4.1"}, {"binder": "B27", "Kd": "33.5 ± 7"}, {"binder": "B28", "Kd": "52 ± 11"}, {"binder": "B29", "Kd": "15.1 ± 1.55"}, {"binder": "B30", "Kd": "9.75 ± 1.45"}, {"binder": "B31", "Kd": "10.7 ± 1"}, {"binder": "B32", "Kd": "16.8 ± 3.25"}, {"binder": "B33", "Kd": "29.1 ± 2.85"}]}]}
